According to PMC10665349:
Where “and” joins values, the source holds several entries; their conditions need not be identical. Equal entries are not always repeated. Where two headings read alike, the source gives them in different places.

Assays:
[1] = molecular target: GST fused to the C-terminal residues 200-294 of HMPV P (strain CAN97-83) (human metapneumovirus strain CAN97-83)
[2] = molecular target: HMPV nucleoprotein N (strain NL/00/1), assembled and RNA-bound (N-RNA) (human metapneumovirus strain NL/00/1) (UniProt Q6WBA1); assay: cryo-EM structure; single-particle cryo-EM of recombinant N-RNA (1.0 mg/ml) in 25 mM Tris-HCl pH 8.0, 250 mM NaCl; 2D classification and 3D reconstruction of 10-mer, 11-mer and spiral particles, local refinement of an N-RNA dimer
[3] = molecular target: HMPV nucleoprotein N (strain NL/00/1), assembled and RNA-bound (N-RNA) (human metapneumovirus strain NL/00/1) (UniProt Q6WBA1); assay: as above; remark: listed apart in the source

| Substance | HMPV polymerase activity, minigenome assay (Firefly luciferase) in BSRT7/5 cells, compared to wild-type; N and full-length P of strain NL99-1 from pCite plasmids (% of wild-type) [1] | stoichiometry N [2] [protomers] | stoichiometry N [3] |
| --- | --- | --- | --- |
| HMPV N (strain NL99-1, plasmid pN) L111A (natural protein) | < 50 | – | – |
| HMPV N (strain CAN97-83) with a C-terminal 6xHis tag, L111E (natural protein) | 10 | – | – |
| HMPV nucleoprotein N (strain NL/00/1), assembled and RNA-bound (N-RNA) (from UniProt Q6WBA1 1-394) (natural protein) | – | > 12 | 10 protomers and 11 protomers and 12 protomers |
| HMPV N (strain NL99-1, plasmid pN) triple mutant with alanines in positions 100, 103 and 111 (natural protein) | 30 | – | – |
